Laboratory results: CN114075288A (CHIA TAI TIANQING PHARMACEUTICAL GROUP CO LTD, dated 2022)
Numbering of substitutions follows the chain as printed.

B1: 人源化14E7-1.1抗体 (antibody, human IgG1, kappa, V domains shown)
VH: QVQLVQSGAEVKKPGASVKVSCKASGYSFTSYWMHWVRQAPGQGLEWMGMIDPSDSETRYAQKFQGRVTMTVDKSTSTVYMELSSLRSEDTAVYYCARWALQYFDYWGQGTLVTVSS
VL: DIQMTQSPSTLSASVGDRVTITCKASQNVGAAVAWYQQKPGKAPKLLIYSASNRYPGVPSRFSGSGSGTEFTLTISSLQPDDFATYYCQQYRPYPFTFGQGTKVEIKR
notes: human IgG1 / human kappa; also called Hz14E7-1.1
B2: 人源化25G4-1.1抗体 (antibody, human IgG1, kappa, V domains shown)
VH: QVQLVQSGAEVKKPGASVKVSCKASGYTFTTNWMNWVRQAPGQGLEWMGRIDPSDSETHYAQKFQGRVTMTVDKSTNTVYMELSSLRSEDTAVYYCVREGIYGPWFAYWGQGTLVTVSS
VL: DIQMTQSPSSLSASVGDRVTITCRASESVDNYGISLMHWYQQKPGKAPKLLIYRASDLESGVPSRFSGSGSRTDFTLTISSLQPEDFATYYCQQSDKDPPTFGQGTKVEIKR
notes: human IgG1 / human kappa; also called Hz25G4-1.1
B3: 人源化24A3-1.1抗体 (antibody, human IgG1, kappa, V domains shown)
VH: QVQLVQSGAEVKKPGASVKVSCKASGYAFTNYLIEWVRQAPGQGLEWMGVINPVNGGISYAQKFQGRVTMTADKSTSTVYMELSSLRSEDTAVYYCARSGGNYGGDYWGQGTLVTVSS
VL: DVVMTQSPDSLAVSLGERATISCKASQSVSNEVAWYQQKPGQPPKLLIYYASHRYTGVPDRFSGSGSGTDFTLTISSLQAEDVAVYYCQQHFSSPLTFGQGTKVEIKR
notes: human IgG1 / human kappa; also called Hz24A3-1.1
B4: 人源化24A3-1.2抗体 (antibody, human IgG1, kappa, V domains shown)
VH: B3 VH with N55Q
VL: B3 VL
notes: human IgG1 / human kappa; also called Hz24A3-1.2
B5: 嵌合14E7抗体 (antibody, human IgG1, kappa, V domains shown)
VH: QVQLQQSGPQLVRPGASVKISCKASGYSFTSYWMHWVKQRPGQGLDWIGMIDPSDSETRLNQKFKDKATLTVDKSSSTAYMQLSSPTSEDSAVYYCARWALQYFDYWGQGTTLTVSS
VL: DIVMTQSQKFMSTTVGDRVSITCKASQNVGAAVAWYQQKPGQSPKLLIYSASNRYPGVPDRFTGSGSGTDFTLTISNMHSEDLADYFCQQYRPYPFTFGGGTKLEIKR
notes: also called Xi14E7
B6: 嵌合24A3抗体 (antibody, human IgG1, kappa, V domains shown)
VH: QVQLQQSGAEVVRSGTSVKVSCKASGYAFTNYLIEWVKQRPGQGLEWIGVINPVNGGISYNEKFKGKATLTADKSSSTVYMQLSSLTSDDSAVYFCIRSGGNYGGDYWGQGTTLTVSS
VL: DVVVTQTPKFLPVTAEDRVTITCKASQSVSNEVAWYQQKPGQSPKLLIYYASHRYTGVPDRFTGSGSGTDFTFTISSVQVEDLAVYFCQQHFSSPLTFGAGTKLELKR
notes: also called Xi24A3
B7: 嵌合25G4抗体 (antibody, human IgG1, kappa, V domains shown)
VH: QVQLQQPGVEVVRPGAPVKLSCKASGYTFTTNWMNWVKQRPGRGLEWIGRIDPSDSETHYNQQFKDKATLTVDKSSNTAYIQLSSLTSEDSAVYYCVREGIYGPWFAYWGQGTLVTVSA
VL: DIVMTQSPASLAVSLGQRATISCRASESVDNYGISLMHWYQQKPGQPPKLLIYRASDLESGIPARFSGSGSRTDFTLTINPVETDDVATYYCQQSDKDPPTFGAGTKLELKR
notes: also called Xi25G4
B8: 人源化7A7-1.1抗体 (antibody, human IgG1, kappa, V domains shown)
VH: QVQLVQSGAEVKKPGASVKVSCKASGYSFSGYTMNWVRQAPGQGLEWMGLISPYNGVTTYAQKFQGRVTMTVDTSTNTVYMELSSLRSEDTAVYYCARGVTVPLRFDVWGQGTLVTVSS
VL: DIQMTQSPSSLSASVGDRVTITCKSSQSLLNSGNQKNYLTWYQQKPGKAPKLLIYWASTRESGVPSRFSGSGSGTDFTLTISSLQPEDFATYYCQNDDSYPLTFGQGTKVEIKR
notes: human IgG1 / human kappa; also called Hz7A7-1.1
B9: 人源化7A7-1.2抗体 (antibody, human IgG1, kappa, V domains shown)
VH: B8 VH with N55Q
VL: B8 VL
notes: human IgG1 / human kappa; also called Hz7A7-1.2
B10: 人源化7A7-2.1抗体 (antibody, human IgG1, kappa, V domains shown)
VH: B8 VH
VL: B8 VL with N31Q
notes: human IgG1 / human kappa; also called Hz7A7-2.1
B11: 嵌合7A7抗体 (antibody, human IgG1, kappa, V domains shown)
VH: EVQLQQSGPELVKPGASMKISCKASGYSFSGYTMNWVKQSLGKNLEWIGLISPYNGVTTYNQKFKGKASLTVDTSSNTAYMELLSLTSDDSAVYYCARGVTVPLRFDVWGAGTPVTVSS
VL: DIVMTQSPSSLTVTTGEKVTMSCKSSQSLLNSGNQKNYLTWYQQKTGQPPKLLIYWASTRESGVPDRFTGSGSGTDFTLTINNVQAEDLAVYYCQNDDSYPLTFGAGTKLELKR
notes: made in Expi-CHO; also called Xi7A7
B12: 人源化14E7-1.2抗体 (antibody, human IgG1, kappa, V domains shown)
VH: B1 VH with D55E
VL: B1 VL
notes: human IgG1 / human kappa; also called Hz14E7-1.2
B13: 人源化25G4-1.2抗体 (antibody, human IgG1, kappa, V domains shown)
VH: B2 VH with D55E
VL: B2 VL
notes: human IgG1 / human kappa; also called Hz25G4-1.2

Biological target: T1, 人PD-L2，稳定表达于U2OS细胞系 (PD-L2-U2OS) (human, UniProt Q9BQ51 20-273)
T1 construct: whole, on cells; also called U2OS-PD-L2; 配体细胞
T1 sequence (looked up): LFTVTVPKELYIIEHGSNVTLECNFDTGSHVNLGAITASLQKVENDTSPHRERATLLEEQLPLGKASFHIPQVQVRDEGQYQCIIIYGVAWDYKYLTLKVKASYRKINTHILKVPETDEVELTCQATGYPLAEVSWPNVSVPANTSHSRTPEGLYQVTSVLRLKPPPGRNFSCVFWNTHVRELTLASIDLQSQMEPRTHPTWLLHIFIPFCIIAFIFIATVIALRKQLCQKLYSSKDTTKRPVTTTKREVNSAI
Assay: flow cytometry on PD-L2-U2OS cells

Question: B1 was tested. Which EC50 did it give?
Answer: 0.443 µg/mL

Question: B2 was tested. Which EC50 did it give?
Answer: 0.483 µg/mL

Question: How did the EC50 turn out when B3 was run?
Answer: 1.05 µg/mL

Question: With B4 as the binder, how does the EC50 read?
Answer: 0.62 µg/mL

Question: With B5 as the binder, how does the EC50 read?
Answer: 1.12 µg/mL

Question: For B6, which EC50 is on record?
Answer: 0.967 µg/mL

Question: Which EC50 does the source give for B7 here?
Answer: 0.54 µg/mL

Question: For B8, which EC50 is on record?
Answer: 0.613 µg/mL

Question: How did the EC50 turn out when B9 was run?
Answer: 0.833 µg/mL

Question: B10 was tested. Which EC50 did it give?
Answer: 0.924 µg/mL

Question: With B11 as the binder, how does the EC50 read?
Answer: 0.43 µg/mL

Biological target: T1, 人PD-L2，稳定表达于U2OS细胞系 (PD-L2-U2OS)
Assay: cell-based or functional assay

Question: Which “IC50(ng/mL), 化学发光信号, 基于细胞的抗体阻断分析” value does the source give for B1 here?
Answer: 112 ng/mL

Question: Which IC50(ng/mL), 化学发光信号, 基于细胞的抗体阻断分析 does the source give for B12 here?
Answer: 2660 ng/mL

Question: B2 was tested. Which “IC50(ng/mL), 化学发光信号, 基于细胞的抗体阻断分析” value did it give?
Answer: 1000 ng/mL

Question: Which IC50(ng/mL), 化学发光信号, 基于细胞的抗体阻断分析 does the source give for B13 here?
Answer: 700 ng/mL

Question: With B3 as the binder, how does the “IC50(ng/mL), 化学发光信号, 基于细胞的抗体阻断分析” value read?
Answer: 1950 ng/mL

Question: B4 was tested. Which “IC50(ng/mL), 化学发光信号, 基于细胞的抗体阻断分析” value did it give?
Answer: 1420 ng/mL

Question: With B5 as the binder, how does the “IC50(ng/mL), 化学发光信号, 基于细胞的抗体阻断分析” value read?
Answer: 342 ng/mL

Question: For B6, which “IC50(ng/mL), 化学发光信号, 基于细胞的抗体阻断分析” value is on record?
Answer: 221 ng/mL

Question: Which “IC50(ng/mL), 化学发光信号, 基于细胞的抗体阻断分析” value does the source give for B7 here?
Answer: 680 ng/mL

Question: How did the “IC50(ng/mL), 化学发光信号, 基于细胞的抗体阻断分析” value turn out when B8 was run?
Answer: 585 ng/mL

Question: B9 was tested. Which “IC50(ng/mL), 化学发光信号, 基于细胞的抗体阻断分析” value did it give?
Answer: 374 ng/mL

Question: How did the “IC50(ng/mL), 化学发光信号, 基于细胞的抗体阻断分析” value turn out when B10 was run?
Answer: 144 ng/mL

Biological target: T2, hPD-L2-His (ACRObiosystems，目录号:PD2-H5220) (human, UniProt Q9BQ51 20-219)
T2 construct: Bought protein (ACRObiosystems PD2-H5220); also called 人PD-L2抗原; 重组体hPD-L2-His蛋白; not shown: His tag
T2 sequence (looked up): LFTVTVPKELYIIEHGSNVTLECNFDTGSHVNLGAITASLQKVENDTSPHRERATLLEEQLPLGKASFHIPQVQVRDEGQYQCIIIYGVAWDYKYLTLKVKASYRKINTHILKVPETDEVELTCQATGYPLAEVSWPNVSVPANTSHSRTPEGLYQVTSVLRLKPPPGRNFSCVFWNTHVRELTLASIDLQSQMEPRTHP
Assay: ELISA, coated hPD-L2-His

Question: With B1 as the binder, how does the EC50 read?
Answer: 0.115 µg/mL

Question: How did the EC50 turn out when B12 was run?
Answer: 0.0333 µg/mL

Question: B2 was tested. Which EC50 did it give?
Answer: 0.0689 µg/mL

Question: Which EC50 does the source give for B13 here?
Answer: 0.0874 µg/mL

Question: Which EC50 does the source give for B3 here?
Answer: 0.167 µg/mL

Question: With B4 as the binder, how does the EC50 read?
Answer: 0.223 µg/mL

Question: B8 was tested. Which EC50 did it give?
Answer: 0.308 µg/mL

Question: B9 was tested. Which EC50 did it give?
Answer: 0.68 µg/mL

Question: For B10, which EC50 is on record?
Answer: 1.12 µg/mL
